Source: US20160194394A1 (GOVERNING COUNCIL OF THE UNIVERSITY OF TORONTO, published 2016)
Like-named read-outs stand apart in the source and are kept apart here.

How the values were obtained:
[1] = target: T1, FZD7 receptor expressed on cells (full-length) (UniProt O75084 33-574, limits assumed); assay: flow cytometry, 200 nM Fab, FZD7 over-expression line (MDA MB 231) [cont'd]
T1 construct: whole, on cells; MDA MB 231 cells may carry other Frizzled receptors too; also called full-length FZD7 receptor; endogenous receptor on MDA MB 231 cells
In short: (§1)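 EDTA-harvested MDA MB 231 cells, either FZD7-overexpressing or with endogenous receptor, were blocked in 2% FBS/PBS and stained with Fab for 30 min on ice. Detection used anti-F(ab′)₂-APC (1:1000, 15 min on ice), then 1% paraformaldehyde fixation and flow cytometry. Values are percent of cells in positive gates.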

[2] = target: T1, FZD7 receptor expressed on cells …; assay: cell-based or functional assay
[3] = target: T2, recombinant Frizzled receptor 7 (FZD7) cysteine-rich domain (CRD) fused to the Fc region of human IgG (human, UniProt O75084 33-185); assay: ELISA, 10ug/ml (200nM) Fab [cont'd]
In short: (§2)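 Plates coated with 2 ug/ml FZD7-Fc or Fc protein were probed with bacterially expressed purified Fabs for 1 h at room temperature in 0.5% BSA/0.05% Tween20/PBS. Bound Fab detected with anti-FLAG-HRP for 45 min, developed with TMB and acid stop, and read as absorbance at 450 nm; n.t. = not tested.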

[4] = target: T2, recombinant Frizzled receptor 7 (FZD7) …; assay: competitive ELISA, detected phage-Fab E4
[5] = target: T2, recombinant Frizzled receptor 7 (FZD7) …; assay: ELISA, 1ug/ml (20nM) Fab [cont'd]
In short: as §2

[6] = target: T1, FZD7 receptor expressed on cells …; assay: flow cytometry, 200 nM Fab, MDA MB 231 [cont'd]
In short: as §1

FZD4 ECD = target: T3, FZD4 ECD; assay: SPR
T3 construct: also called Fzd4 CRD-Fc fusion protein (R&D systems); not shown: exact vendor limits of the CRD construct
T3 chain: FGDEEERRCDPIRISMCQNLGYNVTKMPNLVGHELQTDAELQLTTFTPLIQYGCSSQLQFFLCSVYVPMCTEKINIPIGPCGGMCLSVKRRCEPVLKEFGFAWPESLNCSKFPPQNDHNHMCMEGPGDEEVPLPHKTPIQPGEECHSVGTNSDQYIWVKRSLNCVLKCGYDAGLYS

mouse Fzd2-Fc = target: T4, mouse Fzd2-Fc; assay: SPR
T4 construct: also called mFZD2 ECD; Fzd2 CRD-Fc fusion protein (R&D systems); not shown: exact vendor limits of the CRD construct

human Fzd8-Fc = target: T5, human Fzd8-Fc; assay: SPR
T5 construct: also called FZD8 ECD; Fzd8 CRD-Fc fusion protein (R&D systems); not shown: exact vendor limits of the CRD construct
T5 chain: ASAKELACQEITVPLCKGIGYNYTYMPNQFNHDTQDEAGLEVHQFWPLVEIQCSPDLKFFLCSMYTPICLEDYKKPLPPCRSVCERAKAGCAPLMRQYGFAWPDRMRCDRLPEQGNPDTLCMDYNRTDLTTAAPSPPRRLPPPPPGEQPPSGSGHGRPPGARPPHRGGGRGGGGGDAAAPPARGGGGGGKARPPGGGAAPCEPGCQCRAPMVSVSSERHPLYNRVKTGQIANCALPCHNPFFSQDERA

human Fzd1-Fc = target: T6, human Fzd1-Fc; assay: SPR
T6 construct: also called FZD1 ECD; Fzd1 CRD-Fc fusion protein (R&D systems); not shown: exact vendor limits of the CRD construct

human Fzd5-Fc = target: T7, human Fzd5-Fc; assay: SPR
T7 construct: also called FZD5 ECD; Fzd5 CRD-Fc fusion protein (R&D systems); not shown: exact vendor limits of the CRD construct
T7 chain: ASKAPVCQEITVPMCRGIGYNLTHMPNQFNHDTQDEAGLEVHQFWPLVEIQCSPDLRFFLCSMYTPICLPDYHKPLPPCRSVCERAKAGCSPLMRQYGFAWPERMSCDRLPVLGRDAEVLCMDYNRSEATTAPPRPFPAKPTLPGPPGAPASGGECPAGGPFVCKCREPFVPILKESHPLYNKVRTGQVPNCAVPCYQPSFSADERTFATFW

[7] = target: T2, recombinant Frizzled receptor 7 (FZD7) …; assay: SPR
[8] = target: T2, recombinant Frizzled receptor 7 (FZD7) …; assay: competitive ELISA, detected phage-Fab D10
[9] = target: T2, recombinant Frizzled receptor 7 (FZD7) …; assay: SPR; remark: listed apart in the source
[10] = target: T2, recombinant Frizzled receptor 7 (FZD7) …; assay: competitive ELISA, detected phage-Fab A1
[11] = target: T2, recombinant Frizzled receptor 7 (FZD7) …; assay: competitive ELISA, detected phage-Fab H1
[12] = target: T2, recombinant Frizzled receptor 7 (FZD7) …; assay: competitive ELISA, detected phage-Fab G2
[13] = target: T2, recombinant Frizzled receptor 7 (FZD7) …; assay: competitive ELISA, detected phage-Fab G6
[14] = target: T2, recombinant Frizzled receptor 7 (FZD7) …; assay: competitive ELISA, detected phage-Fab H3
[15] = target: T2, recombinant Frizzled receptor 7 (FZD7) …; assay: competitive ELISA, detected phage-Fab E8
[16] = target: T2, recombinant Frizzled receptor 7 (FZD7) …; assay: competitive ELISA, detected phage-Fab H10
[17] = target: T2, recombinant Frizzled receptor 7 (FZD7) …; assay: ELISA, 10ug/ml (200nM) Fab
In short: as §2

[18] = target: T2, recombinant Frizzled receptor 7 (FZD7) …; assay: ELISA, 1ug/ml (20nM) Fab
In short: as §2

[19] = target: T1, FZD7 receptor expressed on cells …; assay: flow cytometry, 200 nM Fab, MDA MB 231
In short: as §1

[20] = target: T1, FZD7 receptor expressed on cells …; assay: flow cytometry, 200 nM Fab, FZD7 over-expression line (MDA MB 231)
In short: as §1

T4 sequence (chain, as listed by the source limits assumed): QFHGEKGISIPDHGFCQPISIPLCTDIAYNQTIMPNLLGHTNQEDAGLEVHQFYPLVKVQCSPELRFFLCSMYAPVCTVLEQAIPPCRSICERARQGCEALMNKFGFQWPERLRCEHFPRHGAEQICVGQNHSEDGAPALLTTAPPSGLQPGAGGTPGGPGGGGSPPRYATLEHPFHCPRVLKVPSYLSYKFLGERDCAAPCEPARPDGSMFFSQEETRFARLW
T6 sequence (chain, as listed by the source limits assumed): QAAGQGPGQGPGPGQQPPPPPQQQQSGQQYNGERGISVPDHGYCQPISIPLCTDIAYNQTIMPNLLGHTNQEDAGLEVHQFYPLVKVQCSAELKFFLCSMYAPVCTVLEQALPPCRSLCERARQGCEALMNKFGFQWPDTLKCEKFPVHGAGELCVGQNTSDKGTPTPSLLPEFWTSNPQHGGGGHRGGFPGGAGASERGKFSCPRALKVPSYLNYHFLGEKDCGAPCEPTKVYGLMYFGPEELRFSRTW

B1: Fab A1 (Fab)
chain 1: EVQLVESGGGLVQPGGSLRLSCAASGFNISSYYIHWVRQAPGKGLEWVASIYPYYSSTYYADSVKGRFTISADTSKNTAYLQMNSLRAEDTAVYYCARVWYGAMDYWGQGTLVTVSSASTKGPSVFPLAPSSKSTSGGTAALGCLVKDYFPEPVTVSWNSGALTSGVHTFPAVLQSSGLYSLSSVVTVPSSSLGTQTYICNVNHKPSNTKVDKKVEPKSC
chain 2: DIQMTQSPSSLSASVGDRVTITCRASQSVSSAVAWYQQKPGKAPKLLIYSASSLYSGVPSRFSGSRSGTDFTLTISSLQPEDFATYYCQQYYHPITFGQGTKVEIKRTVAAPSVFIFPPSDSQLKSGTASVVCLLNNFYPREAKVQWKVDNALQSGNSQESVTEQDSKDSTYSLSSTLTLSKADYEKHKVYACEVTHQGLSSPVTKSFNRGECGGS
% population within the positive gate [1]: 93.1% | decrease in Wnt 3a-induced transcriptional activity (TOP-FLASH luciferase reporter in MDA MB 231 cells, 400 nM Fab) [2]: > 70% | OD 450 [3]: 3.23 | % of Fab phage in presence of 750 nM Fab [4]: 7.3% | OD 450 [5]: 3.22 | % population within the positive gate [6]: 98.6% | Kd (FZD4 ECD): 13.3 nM | Kd (mouse Fzd2-Fc): 1.75 nM | Kd (human Fzd8-Fc): 9.31 nM | Kd (human Fzd1-Fc): 1.07 nM | Kd (human Fzd5-Fc): 15.8 nM | Kd [7]: 2.09 nM | % of Fab phage in presence of 750 nM Fab [8]: 5% | Kd [9]: 2.09 nM | koff [9]: 0.000994 s⁻¹ | kon [9]: 476000 M⁻¹ s⁻¹ | % of Fab phage in presence of 750 nM Fab [10]: 4.2% | % of Fab phage in presence of 750 nM Fab [11]: 13.7% | % of Fab phage in presence of 750 nM Fab [12]: 4.7% | % of Fab phage in presence of 750 nM Fab [13]: 8.2% | % of Fab phage in presence of 750 nM Fab [14]: 15.1% | % of Fab phage in presence of 750 nM Fab [15]: 6.5% | % of Fab phage in presence of 750 nM Fab [16]: 5.2%

B2: Fab H10 (Fab)
chain 1: EVQLVESGGGLVQPGGSLRLSCAASGFNIYYYSMHWVRQAPGKGLEWVASIYSSYSYTSYADSVKGRFTISADTSKNTAYLQMNSLRAEDTAVYYCARSSPGADYGLDYWGQGTLVTVSSASTKGPSVFPLAPSSKSTSGGTAALGCLVKDYFPEPVTVSWNSGALTSGVHTFPAVLQSSGLYSLSSVVTVPSSSLGTQTYICNVNHKPSNTKVDKKVEPKSC
chain 2: DIQMTQSPSSLSASVGDRVTITCRASQSVSSAVAWYQQKPGKAPKLLIYSASSLYSGVPSRFSGSRSGTDFTLTISSLQPEDFATYYCQQWAYGPFTFGQGTKVEIKRTVAAPSVFIFPPSDSQLKSGTASVVCLLNNFYPREAKVQWKVDNALQSGNSQESVTEQDSKDSTYSLSSTLTLSKADYEKHKVYACEVTHQGLSSPVTKSFNRGECGGS
OD 450 [17]: 3.22 | decrease in Wnt 3a-induced transcriptional activity (TOP-FLASH luciferase reporter in MDA MB 231 cells, 400 nM Fab) [2]: > 70% | % of Fab phage in presence of 750 nM Fab [4]: 20.9% | OD 450 [18]: 3.19 | Kd (mouse Fzd2-Fc): 0.95 nM | Kd (human Fzd8-Fc): 2.5 nM | Kd (human Fzd1-Fc): 3.67 nM | Kd (human Fzd5-Fc): 3.06 nM | Kd [7]: 1.03 nM | % of Fab phage in presence of 750 nM Fab [8]: 6.8% | Kd [9]: 1.03 nM | koff [9]: 0.000548 s⁻¹ | kon [9]: 533000 M⁻¹ s⁻¹ | % of Fab phage in presence of 750 nM Fab [10]: 21.8% | % of Fab phage in presence of 750 nM Fab [11]: 53.5% | % population within the positive gate [19]: 99% | % of Fab phage in presence of 750 nM Fab [12]: 7.4% | % population within the positive gate [20]: 93.2% | % of Fab phage in presence of 750 nM Fab [13]: 29.1% | % of Fab phage in presence of 750 nM Fab [14]: 27.7% | % of Fab phage in presence of 750 nM Fab [15]: 7.1% | % of Fab phage in presence of 750 nM Fab [16]: 7.4%
